Data published in paper PMC6602413.

Tests used:
[1] = target: T1, Strep-RapZ (Escherichia coli (K-12?)) (UniProt P0A894); assay: EMSA; conditions: 10 mM Tris-HCl pH 7.0, 100 mM KCl, 10 mM MgCl2, 1 ug yeast tRNA per 10 ul, 30 min at 30 C (competition 15 + 15 min); native 6% PAGE at 4 C
T1 sequence: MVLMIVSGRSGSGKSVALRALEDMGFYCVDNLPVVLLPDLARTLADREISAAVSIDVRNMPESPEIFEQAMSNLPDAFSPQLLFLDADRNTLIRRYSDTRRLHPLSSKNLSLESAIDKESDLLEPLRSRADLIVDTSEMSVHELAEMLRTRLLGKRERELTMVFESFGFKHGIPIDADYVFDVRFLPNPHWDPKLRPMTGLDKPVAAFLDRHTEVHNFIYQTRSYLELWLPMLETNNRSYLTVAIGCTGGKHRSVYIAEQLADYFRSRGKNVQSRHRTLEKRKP

[2] = target: T1, Strep-RapZ (Escherichia coli (K-12?)); assay: competition; conditions: 10 mM Tris-HCl pH 7.0, 100 mM KCl, 10 mM MgCl2, 1 ug yeast tRNA per 10 ul, 30 min at 30 C (competition 15 + 15 min); native 6% PAGE at 4 C

GGGAGAGUAGAUGCUCAUUCCAUCUCUUAUGUUCGCCUUAGUGCCUCAUAAACUCCGGAAUGACGCAGAGCCGUUUACGGUGCUUAUCGUCCACUGACAGAUGUCGCUUAUGCCUCAUCAGACACCAUGGACACAACGUUGAGUGAAGCACCCACUUGUUG [GlmZ* (processed GlmZ)]
binding [1]: binds | binding [2]: binds

GGGAGAGUAGAUGCUCAUUCCAUCUCUUAUGUUCGCCUUAGUGCCUCAUAAACUCCGGAAUGACGCAGAGCCGUUUACGGUGCUUAUCGUCCACUGACAGAUGUCGCUUAUGCCUCAUCAGACACCAUGGACACAACGUUGAGUGAAGCACCCACUUGUUGUCAUACAGACCUGUUUUAACGCCUGCUCCGUAAUAAGAGCAGGCGUUUUUUU [GlmZ full-length]
binding [1]: binds | binding [2]: binds
